Laboratory results from the Human Domainome abundance scans (Beltran et al. 2025).

B1: Receptor-interacting serine/threonine-protein kinase 2, residues 438 to 518; numbered along this chain, O43353 (parent)
chain: QWIQSKREDIVNQMTEACLNQSLDALLSRDLIMKEDYELVSTKPTRTSKVRQLLDTTDIQGEEFAKVIVQKLKDNKQMGLQ

Variants of: B1
Assay: abundance fitness (aPCA) (normalised: wild type 0, dead -1); higher = more abundant; growth selection in yeast, the domain comes from the species named
Conditions: Homo sapiens

Abundance fitness of substitutions, site by site:
S41: Y -0.117
T47: S -0.061; G -0.185; R 0.049; C -0.254; D -0.152; V -0.153; Q -0.145; K -0.031; P -0.228; A 0.121; F -0.493; L -0.373; M -0.431; W -0.333; E 0.201; Y -0.57; N -0.286; H 0.111
V50: S -0.389; E -0.538; P -0.53; W -0.903; R -0.802; H -0.696; Y -0.761; A -0.842; Q -0.612; T -0.505; G -0.679; I -0.524; D -0.493; L -0.817; N -0.737
Q52: C -0.203; D -0.526; E -0.512; F -0.403; G -0.556; A 0.082
R51: E -0.273; M -0.354; P -0.501; I -0.235; K -0.071; N -0.207; S -0.194; W -0.802; C -0.307; H -0.518; G -0.407; D -0.517; Q -0.052; T -0.255; V -0.273; A -0.145; L -0.254
K49: E -0.576; H -0.628; I -0.564; Y -0.625; R -0.283; V -0.784; T -0.761; C -0.81; D -0.389; Q -0.786; P -0.625; M -0.137; A -0.586; W -0.722; S -0.58
K43: Q -0.098; W -1.04; H -0.109; G -0.451; I -0.535; T -0.89; F -0.466; R 0.013; D -1.06; L -0.008; Y -1; C -0.219; P -0.695; V -0.348; S -0.46
T42: M 0.012; K -0.206; H -0.156; Q 0.207; L -0.225; S 0.022; R 0.066; P -0.89; C -0.108; V -0.415; E -0.158; Y -0.406; I -0.225; F -0.243; N -0.115; A -0.069; D -0.318
P44: E -0.141; L -0.263; N -0.196; H -0.761; C -0.491; K -0.298; R -0.265; Y -0.2; Q -0.169; A -0.181; G -0.314; S -0.304; T -0.283; W -0.483; V -0.214
T45: P -0.579; Q -0.652; K -0.999; R -0.879; L -0.696; V -0.56; W -0.571; N -0.011; D 0.029; E -0.364; C -0.308; A -0.476; H -0.568; Y -1.11; I -0.87
R46: D -0.221; A -0.674; G -0.596; M -0.411; P -0.519; V -0.045; T 0.02; I 0.007; N -0.288; H -0.012; C -0.285; W -0.796; L 0.143; E -0.214; F -0.447
S48: R -0.466; G -0.11; Q 0.123; C -0.293; V -0.534; T -0.224; W -0.819; H -0.47; M -0.142; I -0.923; P -0.651; D 0.065; A 0.072; E 0.542; F -0.527; L -0.04; N -0.892; Y -0.644
